Source: IntAct's records for PubMed 12718882

B1: Splicing factor U2AF 65 kDa subunit (Homo sapiens), P26368 (parent)
chain: MSDFDEFERQLNENKQERDKENRHRKRSHSRSRSRDRKRRSRSRDRRNRDQRSASRDRRRRSKPLTRGAKEEHGGLIRSPRHEKKKKVRKYWDVPPPGFEHITPMQYKAMQAAGQIPATALLPTMTPDGLAVTPTPVPVVGSQMTRQARRLYVGNIPFGITEEAMMDFFNAQMRLGGLTQAPGNPVLAVQINQDKNFAFLEFRSVDETTQAMAFDGIIFQGQSLKIRRPHDYQPLPGMSENPSVYVPGVVSTVVPDSAHKLFIGGLPNYLNDDQVKELLTSFGPLKAFNLVKDSATGLSKGYAFCEYVDINVTDQAIAGLNGMQLGDKKLLVQRASVGAKNATLVSPPSTINQTPVTLQVPGLMSSQVQMGGHPTEVLCLMNMVLPEELLDDEEYEEIVEDVRDECSKYGLVKSIEIPRPVDGVEVPGCGKIFVEFTSVFDCQKAMQGLTGRKFANRVVVTKYCDPDSYHRRDFW
partner: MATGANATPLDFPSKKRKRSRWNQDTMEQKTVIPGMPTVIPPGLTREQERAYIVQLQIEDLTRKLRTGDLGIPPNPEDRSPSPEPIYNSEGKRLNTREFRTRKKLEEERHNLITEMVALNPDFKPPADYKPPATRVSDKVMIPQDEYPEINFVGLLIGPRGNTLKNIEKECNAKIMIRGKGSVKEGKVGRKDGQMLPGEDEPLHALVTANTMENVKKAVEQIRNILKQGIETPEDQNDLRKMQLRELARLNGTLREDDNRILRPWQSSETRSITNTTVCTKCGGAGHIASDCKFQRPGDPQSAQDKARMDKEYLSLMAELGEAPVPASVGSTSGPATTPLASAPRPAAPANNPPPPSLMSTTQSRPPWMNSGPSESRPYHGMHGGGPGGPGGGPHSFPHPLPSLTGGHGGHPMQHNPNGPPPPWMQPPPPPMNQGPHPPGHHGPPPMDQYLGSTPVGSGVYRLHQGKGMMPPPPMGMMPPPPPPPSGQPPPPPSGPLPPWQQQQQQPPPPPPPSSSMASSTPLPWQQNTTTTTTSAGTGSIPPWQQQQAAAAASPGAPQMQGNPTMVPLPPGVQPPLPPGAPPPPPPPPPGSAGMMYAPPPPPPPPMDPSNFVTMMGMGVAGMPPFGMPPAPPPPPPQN
B2: Splicing factor 1 (Homo sapiens), Q15637 (parent)
chain: B1 partner

Variants of: B1
Conditions: with sf01_human SF1, Q15637

Variant	effect of a mutation on the interaction
F454Y	decreasing interaction
F454A	decreasing interaction
E396A;E397A	with no effect
E396K;E397K	disrupting interaction
D391A;D392A;E393A;E394A	decreasing interaction
D391R;D392R;E393K;E394K	disrupting interaction
E387R;E388R	disrupting interaction
E387G;E388A	with no effect
E396G;E397A	disrupting interaction

Variants of: B2
Conditions: with U2AF2, P26368

Variant	effect of a mutation on the interaction
K15E;K16E;R17D	disrupting interaction
R19E	with no effect
N23A	with no effect
R21D	disrupting interaction
R21K	with no effect
K16E;R17D;K18E	disrupting interaction
Q24A	with no effect
K15E	decreasing interaction
R17E	with no effect
K16A;R17A;K18A	with no effect
W22A	disrupting interaction
W22F	with no effect
